The text below walks through data of patent US20260232828A1, “LIGAND-CYTOTOXICITY DRUG CONJUGATES AND PHARMACEUTICAL USES THEREOF” (HANSOH BIO LLC, priority 2023, published 2026).

Sequences and labels used below:
B1: 17F3 anti-CDH17 recombinant antibody (human IgG1) (antibody, V domains shown)
VH: EVQLVESGGGLVKSGGSLRLSCAASGFTFSSYSLKWVRQAPGKGLEWVSSISSSSGYIYYADSVKGRFTISRDNAKNSLYLQMNSLRAEDTAMYYCARAVSTIAARPGYYYYYMDVWGKGTLVTVSS
VL: DIQMTQSPSSVSASIGDRVTITCRASQDISTWFAWYQQKPGKAPKLLIYAASTLRSGVPSRFSGSGSGTDFTLTINSLQPEDFATYYCQQANSFPLTFGGGTKVEIKR
B2: 13C7 anti-CDH17 recombinant antibody (human IgG1) (antibody, V domains shown)
VH: QITLKESGPTLVKPTQTLTLTCTFSGFSLSTSGVGVGWIRQPPGKALEWLALIYWNDDKRYRPSLKNRLTITKDTSKNQVVLTMTNMDPVDTATYYCTHYGVTAPFYNWFDPWGQGTLVTVSS
VL: DIQMTQSPSSLSASVGDRVTITCRASQSITSYLNWYQQKPGKAPKLLIYAASSLQSGVPSRFSGSGSGTDFTLTISSLQPEDFATYYCQRSYSTLTFGGGTKVEIKR
B3: 19C7 anti-CDH17 recombinant antibody (human IgG1) (antibody, V domains shown)
VH: B2 VH with F27I, S32G, A51S, R62S, N67S, T75S, T98A, Y100S, V102L, T103A
VL: B2 VL with T30S, S31N, Q38L, K42N, Y49F, Y87F
B4: 2F9 anti-CDH17 recombinant antibody (human IgG1) (antibody, V domains shown)
VH: EVQLVESGGGVVRPGGSLRLSCAASGFTFDDYGMSWVRQAPGKGLEWVSGLSWNGGNTYYADSVKGRFTISRDNAKNSLYLQMNSLRAEDTALYYCARGSRYNWNYDAFDIWGQGTLVTVSS
VL: DIQMTQSPSSLSASIGDRVTITCRASQGIRNALGWYQQKPGKAPKRLIYAASNLQSGVPSRFSGSGSGTEFTLTISSLQPEDFATYYCLQHNSYPFTFGPGTKVEIKR
B5: 9E2 anti-CDH17 recombinant antibody (human IgG1) (antibody, V domains shown)
VH: B4 VH with D31N, L51I, S52N, N57S, K65R, N105S
VL: B4 VL with I15V, I29V, N53S
B6: 1H10 anti-CDH17 recombinant antibody (human IgG1) (antibody, V domains shown)
VH: QVQLVESGGGVVQPGRSLRLSCVASGFTFSSYGMHWVRQAPGKGLEWVTFIWYDGSNKNYADSVKGRFTISRDNSKNTLNLQMNSLRVEDTAVYYCARDRYSSGWDVFDYWGQGTLVTVSS
VL: DIQMTQSPSSVSASVGDRVTITCRASQDISSWLAWYQQQPGKAPKLQIYAASSLQSGVPSRFSGSGSGTDFTLTISSLQPEDFATYYCQQAKSFPPTFGQGTKVEIKR
B7: 4F9 (hybridoma clone supernatant) (antibody, V domains shown)
VH: QVQLQESGPGLVKPSGTLSLTCAVSGGSISSSNWWSWVRQPPGKGLEWIGEIYHSGSTSYNPSLKSRVTISVDKSKNQFSLKLSSVTAADTAVYYCARNDWGFPLDCWGQGTLVTVSS
VL: DIQMTQSPSSLSASVGDRVTITCRASQSISSYLNWYQQKPGKAPKLLIYAASSLQSGVPSRFSGSGSGTHFTLTISSLQPEDFATYYCQQSHNIPITFGQGTRLEIK
notes: Hybridoma supernatant
B8: 10E11 (hybridoma clone supernatant) (antibody, V domains shown)
VH: EVQLVQSGTEVKKPGESLKISCKDSGYRFSSYWIGWVRQMPGKGLEWMGIIYPGDSDTRYSPSFQGQVTISADKSISTAYLQWRSLKASDTAMYYCARRGWVNYFDYWGQGTLVTVSS
VL: DIQMTQSPSSVSASVGDRVTITCRASQGISNWLGWYQQKPGKAPKLLIYAASSLQSGVPSRFSGSGSGTDFTLTISSLQPEDFATYYCQQANSFPLTFGGGTKVEIK
notes: Hybridoma supernatant
B9: 14B12 (hybridoma clone supernatant) (antibody, V domains shown)
VH: QVQLQESGPGLVKPSETLSLTCTVSGGSINTYYRSWIRQPPGKGLEWIGYIYYSGNTNYNPSLKSRVTISADTSKNQFSLNLISVTAADTAMYYCARAQYGEEAFDIWGQGTLVTVSS
VL: DIQMTQSPSSLSASVGDRVTITCRASQSITTYLNWYQQKPGKAPQLLIFAASRLQTGVPSRFSGSGSGTDFTLTISSLLPGDFATYYCQQSYNTPPTFGGGTKVEIK
notes: Hybridoma supernatant
B10: 17F3 (hybridoma clone supernatant) (antibody, V domains shown)
VH: B1 VH
VL: B8 VL with V15I, G28D, N31T, L33F, G34A, S53T, Q55R, S76N
notes: Hybridoma supernatant
B11: 13C7 (hybridoma clone supernatant) (antibody, V domains shown)
VH: B2 VH
VL: DIQMTQSPSSLSASVGDRVTITCRASQSITSYLNWYQQKPGKAPKLLIYAASSLQSGVPSRFSGSGSGTDFTLTISSLQPEDFATYYCQRSYSTLTFGGGTKVEIK
notes: Hybridoma supernatant
B12: 19C7 (hybridoma clone supernatant) (antibody, V domains shown)
VH: B2 VH with F27I, S32G, A51S, R62S, N67S, T75S, T98A, Y100S, V102L, T103A
VL: B11 VL with T30S, S31N, Q38L, K42N, Y49F, Y87F
notes: Hybridoma supernatant
B13: 2F9 (hybridoma clone supernatant) (antibody, V domains shown)
VH: B4 VH
VL: DIQMTQSPSSLSASIGDRVTITCRASQGIRNALGWYQQKPGKAPKRLIYAASNLQSGVPSRFSGSGSGTEFTLTISSLQPEDFATYYCLQHNSYPFTFGPGTKVEIK
notes: Hybridoma supernatant
B14: 9E2 (hybridoma clone supernatant) (antibody, V domains shown)
VH: B4 VH with D31N, L51I, S52N, N57S, K65R, N105S
VL: B13 VL with I15V, I29V, N53S
notes: Hybridoma supernatant
B15: 15A4 (hybridoma clone supernatant) (antibody, V domains shown)
VH: B6 VH with V23A, T28N, T49A, I51V, K58Q, K76N, N80Y, V88A
VL: B8 VL with N31S, G34A, Y49F, D70G, N92K, L96P, G100Q
notes: Hybridoma supernatant
B16: 1H10 (hybridoma clone supernatant) (antibody, V domains shown)
VH: B6 VH
VL: B8 VL with G28D, N31S, G34A, K39Q, L47Q, N92K, L96P, G100Q
notes: Hybridoma supernatant from mice encoding human heavy and kappa variable regions

Residue numbers refer to the chain shown, from its start.

One assay concerns the target T1, human CDH17 as originally expressed in cells (cell surface CDH17 on AsPC1, GP2d and other cancer cell lines) (human, UniProt Q12864 23-832). In words: cell-based or functional assay.
As to B1, the “IC50 of indirect killing assay to evaluate the internalization in AsPC1 cells” value (from here on “IC50 of indirect killing assay”) came out at 80 pM.

Take B2: the “IC50 of indirect killing assay” value came out at 90 pM.

Regarding B3, the “IC50 of indirect killing assay” value worked out at 90 pM.

As to B4, the “IC50 of indirect killing assay” value turned out to be 140 pM.

For the molecule B5, the “IC50 of indirect killing assay” value turned out to be 150 pM.

Regarding B6, the “IC50 of indirect killing assay” value was found to be 190 pM.

For the next assay, the target named is T2, BSA (UniProt P02769 25-607).
T2 construct: Control coating protein of the ELISA
T2 sequence (P02769 25-607 limits assumed): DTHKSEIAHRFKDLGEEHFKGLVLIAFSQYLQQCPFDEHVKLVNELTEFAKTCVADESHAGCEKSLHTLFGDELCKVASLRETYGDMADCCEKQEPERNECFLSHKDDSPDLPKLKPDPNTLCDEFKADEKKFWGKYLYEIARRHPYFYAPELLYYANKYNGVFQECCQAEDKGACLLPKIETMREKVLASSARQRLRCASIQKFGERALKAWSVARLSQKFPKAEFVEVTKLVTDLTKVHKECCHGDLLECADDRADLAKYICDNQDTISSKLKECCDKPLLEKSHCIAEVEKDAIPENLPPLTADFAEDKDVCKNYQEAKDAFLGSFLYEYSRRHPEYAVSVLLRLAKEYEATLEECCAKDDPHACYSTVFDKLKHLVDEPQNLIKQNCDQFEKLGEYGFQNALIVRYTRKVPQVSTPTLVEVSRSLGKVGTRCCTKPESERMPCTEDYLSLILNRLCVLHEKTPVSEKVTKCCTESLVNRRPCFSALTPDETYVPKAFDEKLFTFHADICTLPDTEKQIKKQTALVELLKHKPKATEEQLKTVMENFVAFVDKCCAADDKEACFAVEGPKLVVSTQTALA
In words: ELISA, plate coated with BSA, hybridoma supernatant. How it is done:
(§1) ELISA was performed using the DuoSet ELISA Ancillary Kit (R&D System, DY008). ELISA plates were coated with 1 μg/ml of human CDH17 His Tag (Sino biological, catalog number 11360-H08H), or BSA overnight. Excess unbound proteins were washed off by washing the plates three times with the wash buffer before blocking for 1 hour at room temperature. 100 μl CDH17 hybridoma supernatant was added in each well and incubated for 1 hour at room temperature. Excess unbound antibodies were washed off and 100 μl of 1:30000 diluted secondary antibody Goat anti-mouse IgG Fc-HRP (ab5870) was added to each well for another 1 hour. Plates were washed before the addition 50 μL of […] (color A and color B) according to manufacturer's protocol. The reactions were stopped using 25 μL of stop solution. Optical density at 450 nm of samples was measured by a microplate reader (PerkinElmer).
(ELISA stands for enzyme-linked immunosorbent assay.)
For B7, the OD450 was 0.051 OD450.

As to B8, the OD450 came out at 0.0475 OD450.

The molecule B9 showed an OD450 of 0.041 OD450.

B10 yielded an OD450 of 0.0425 OD450.

B11 showed an OD450 of 0.0432 OD450.

In turn, B12 returned an OD450 of 0.0468 OD450.

Take B13: the OD450 amounted to 0.0718 OD450.

B14 yielded an OD450 of 0.0429 OD450.

Turning to B15, the OD450 is 0.0431 OD450.

On to B16, for which the OD450 was determined as 0.0399 OD450.

A further assay has as its target T1, human CDH17 as originally expressed in …. In words: flow cytometry titration on CDH17 positive AsPC1 cells. Here is the method: To determine the binding of recombinant antibody to cell surface CDH17 receptors, cells were first harvested and resuspended in cell staining buffer (BioLegend, Cat #420201) at 1.3-1.5×10⁶ cells/mL. Then, the cells were treated with human Fc receptor blocking reagent (BioLegend, Cat #422302) on the ice for 10 min. The resulting cell suspension was aliquoted into 50 μL aliquots. […] The cells were incubated on the ice for 1 hour and then washed with cell staining buffer twice. 50 μL of secondary antibody (PE conjugated goat anti-human Fc, eBioscience™, 1:250 dilution) was added to each sample to resuspend the cells. The cells were incubated on the ice for another 20 min. Cells were subsequently washed twice with cell staining buffer and resuspended in 4% PFA to fix the cells. The samples were analyzed using iQue3 to measure the median fluorescence intensity using corresponding channels.
For orientation: In flow cytometry, cells or beads pass a laser one at a time.
Usually Kd stands for a measure of binding affinity in units of concentration. A low value points to higher affinity. On to B1, for which the Kd came out at 740 pM.

For B2, the Kd is 280 pM.

With B3, binding was characterised by a dissociation constant (Kd) of 130 pM.

Take B4: the Kd was determined as 170 pM.

Molecule B5 gave a Kd of 310 pM.

In the case of B6, the Kd is 310 pM.

The target in another assay is T2, BSA. The assay is described as follows: ELISA, plate coated with 1 µg/ml BSA, hybridoma supernatant. How it is done:
as §1
Consider B7, for which the binding result is reported as “no binding”.

Turning to B8, the binding result is reported as “no binding”.

In the case of B9, the binding result was “no binding”.

As to B10, the binding result is recorded as “no binding”.

B11: the binding result is “no binding”.

Regarding B12, the binding result was “no binding”.

As to B13, the binding result is given as “no binding”.

In the case of B14, the binding result is “no binding”.

As for B15, the binding result is given as “no binding”.

On to B16, for which the binding result is reported as “no binding”.

The target in another assay is T3, human CDH17 His Tag (Sino biological, catalog number 11360-H08H) (human, UniProt Q12864 23-787).
T3 construct: Bought recombinant protein; also called hCDH17; human CDH17 protein; not shown: His tag
The assay is described as follows: ELISA, plate coated with 1 µg/ml human CDH17 His Tag, hybridoma supernatant. Here is the method:
as §1
As for B7, the OD450 was 1.52 OD450.

The molecule B8 had an OD450 of 1.48 OD450.

B9 yielded an OD450 of 1.88 OD450.

The molecule B10 displayed an OD450 of 1.66 OD450.

On to B11, for which the OD450 was determined as 1.62 OD450.

B12 gave an OD450 of 1.84 OD450.

For B13, the OD450 worked out at 1.72 OD450.

As to B14, the OD450 was 1.48 OD450.

On to B15, for which the OD450 was found to be 1.6 OD450.

For the molecule B16, the OD450 came out at 1.79 OD450.
